Data taken from article doi:10.1101/2022.10.13.512040 (bioRxiv, 2022).

How the values were obtained:
cryo-EM structure = molecular target: the molecule itself; assay: cryo-EM structure
[1] = molecular target: Arabidopsis thaliana PIN1 (PIN-FORMED 1 auxin transporter) (Arabidopsis thaliana, UniProt Q9C6B8); assay: cryo-EM structure

Binder	binding result (cryo-EM structure)	binding result [1]
Arabidopsis thaliana PIN1 (PIN-FORMED 1 auxin transporter) (natural protein) MITAADFYHVMTAMVPLYVAMILAYGSVKWWKIFTPDQCSGINRFVALFAVPLLSFHFIAANNPYAMNLRFLAADSLQKVIVLSLLFLWCKLSRNGSLDWTITLFSLSTLPNTLVMGIPLLKGMYGNFSGDLMVQIVVLQCIIWYTLMLFLFEYRGAKLLISEQFPDTAGSIVSIHVDSDIMSLDGRQPLETEAEIKEDGKLHVTVRRSNASRSDIYSRRSQGLSATPRPSNLTNAEIYSLQSSRNPTPRGSSFNHTDFYSMMASGGGRNSNFGPGEAVFGSKGPTPRPSNYEEDGGPAKPTAAGTAAGAGRFHYQSGGSGGGGGAHYPAPNPGMFSPNTGGGGGTAAKGNAPVVGGKRQDGNGRDLHMFVWSSSASPVSDVFGGGGGNHHADYSTATNDHQKDVKISVPQGNSNDNQYVEREEFSFGNKDDDSKVLATDGGNNISNKTTQAKVMPPTSVMTRLILIMVWRKLIRNPNSYSSLFGITWSLISFKWNIEMPALIAKSISILSDAGLGMAMFSLGLFMALNPRIIACGNRRAAFAAAMRFVVGPAVMLVASYAVGLRGVLLHVAIIQAALPQGIVPFVFAKEYNVHPDILSTAVIFGMLIALPITLLYYILLGL	binds	–
sybody-21 (VHH) VHH: QVQLVESGGGLVQAGGSLRLSCAASGFPVNISWMEWYRQVPGKEREWVAAIQSTGSYTWYADSVKGRFTISRDNAKNTVYLQMNSLKPEDTAVYYCRVKVGAYYRGQGTQVTVSA	–	binds
